The nature of data set [1]: BCA analysis of protein concentration of redissolved hIL-12. The data set is classed as physicochemical. The note with it: BCA assay, resolubilized in 10 mM PBS. Here is the method:
Recombinant Human Interleukin-12 (hIL-112) was obtained from Genetics Institute and tBA from EM Science. hIL-12 (500 microliters at 2.79 mg/ml) was injected into tBA (5 ml). A fine precipitate formed immediately. The dispersion was rapidly frozen in liquid nitrogen (15 minutes) and the solvent removed by lyophilization for 48 hours. The resulting powder was visualized by SEM. The stability following micronization was assayed by SDS-PAGE (Invitrogen) and BCA (Pierce) assay of hIL-12 resolubilized in 10 mM PBS according to manufacturer's instructions.
SDS-PAGE (denaturing, non-reducing) analysis was used to compare tBA-treated hIL-12 particles with the control stock, with and without lyophilization. […] This was confirmed by […] acid (BCA) analysis of protein concentration of hIL-12 redissolved after lyophilization alone, or after micronization followed by lyophilization. The lyophilized-only protein was 99% soluble, while the micronized protein was 71% soluble. Thus a disagreggating agent should be included to prevent aggregation when micronizing hIL-12 using tBA.

The nature of data set [2]: SDS-PAGE stability following micronization. The data set is classed as physicochemical. The note with it: denaturing, non-reducing; resolubilized in 10 mM PBS.
For data set [3] the following is noted: in vivo.
Method: In a separate study, the bioavailability for non-encapsulated insulin was tested.

For the substance “lyophilized-only hIL-12: hIL-12 control stock redissolved after lyophilization alone”, the “soluble protein after redissolving” value in data set [1] turned out to be 99%. Moreover, in data set [2], the “aggregation by SDS-PAGE” value is reported as “did not produce irreversible aggregation”.

Take “micronized hIL-12: Recombinant Human Interleukin-12 injected into tBA, frozen and lyophilized”: in data set [1], the “soluble protein after redissolving” value worked out at 71%. For the same substance, the “aggregation by SDS-PAGE” value in data set [2] was “irreversibly denatured and aggregated into dimers, trimers, and aggregates too large to enter the gel”.

In the case of “Non-encapsulated insulin: non-encapsulated insulin tested for bioavailability in a separate study”, in data set [3], the bioavailability entry is given as “less than 1%”.
